From publication PMC4286497

Tested on: Nc1ncnc2c1ncn2[C@@H]1O[C@H](COP(=O)(O)OP(=O)(O)OP(=O)(O)O)[C@@H](O)[C@H]1O
Test: purified protein
[1] = saturating taxol-stabilized MTs, no ATPγS, pH 7.2, 2 mM MgCl2

Substance | Km [1] | kcat [1] | Km (pH 7.2)
WT dynein (GST-Dyn1_331kD) (Saccharomyces cerevisiae S288C) | 46 ± 5 µM | 17.0 ± 0.5 s⁻¹ | 
WT dynein (GST-Dyn1_331kD) (Saccharomyces cerevisiae S288C; K2424A) |  |  | 38 ± 3 µM
